According to article PMC2855162 (Molecular cell, 2010):
One block for each molecule: values may come before it.

T1: His-Smt3-TRAF1 (human)
T1 sequence (Q13077 whole entry, looked up): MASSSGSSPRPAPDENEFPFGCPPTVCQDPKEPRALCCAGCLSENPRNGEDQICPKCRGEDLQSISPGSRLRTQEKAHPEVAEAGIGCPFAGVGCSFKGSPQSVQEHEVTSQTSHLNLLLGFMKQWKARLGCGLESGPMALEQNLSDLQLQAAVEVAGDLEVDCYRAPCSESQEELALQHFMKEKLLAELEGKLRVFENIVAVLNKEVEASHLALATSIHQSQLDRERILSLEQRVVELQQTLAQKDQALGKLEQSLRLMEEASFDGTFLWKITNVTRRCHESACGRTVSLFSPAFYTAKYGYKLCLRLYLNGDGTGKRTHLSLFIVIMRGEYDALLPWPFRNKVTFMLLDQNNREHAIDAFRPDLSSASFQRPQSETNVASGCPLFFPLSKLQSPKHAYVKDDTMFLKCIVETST

T2: TRAF2 construct containing residues 266-329 (human, UniProt Q12933 266-329)
T2 sequence (looked up): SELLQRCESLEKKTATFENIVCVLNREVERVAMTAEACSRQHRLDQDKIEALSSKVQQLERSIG

B1: His-TRAF2 (domain or fragment, human)
chain: SELLQRCESLEKKTATFENIVCVLNREVERVAMTAEACSRQHRLDQDKIEALSSKVQQLERSIGL
B2: untagged TRAF1 (co-expressed with His-tagged TRAF2 and cIAP2) (domain or fragment, human)
chain: FMKEKLLAELEGKLRVFENIVAVLNKEVEASHLALATSIHQSQLDRERILSLEQRVVELQQTLA
B3: cIAP2 BIR1 domain (residues 26-99), non-tagged (domain or fragment, human, UniProt Q13489 26-99, looked up)
chain: LSCELYRMSTYSTFPAGVPVSERSLARAGFYYTGVNDKVKCFCCGLMLDNWKRGDSPTEKHKKLYPSCRFVQSL

Legend:
[1] = biological target: T1, His-Smt3-TRAF1 (human); assay: SEC-MALS
[2] = biological target: the molecule itself; assay: SEC-MALS
[3] = biological target: B1; assay: pull-down
[4] = biological target: T2, TRAF2 construct containing residues …; assay: SEC-MALS

stoichiometry N [1]: 3
Molecule: His-Smt3-TRAF1 (domain or fragment)

Molecule: B1
stoichiometry N (TRAF2 per TRAF1) [1]: 2 | stoichiometry N [2]: 3

Molecule: B2
stoichiometry N [3]: ~2 TRAF2 per TRAF1

Molecule: B3
stoichiometry N [4]: 3 TRAF2 molecules per cIAP2 BIR1 molecule
